According to PMC7932536:

Assays:
[1] = molecular target: Human amyloid beta (Aβ) 42 peptide (human) (UniProt P05067)
[2] = molecular target: Human amyloid beta (Aβ) 42 peptide (human) (UniProt P05067); remark: listed apart in the source

Chain of SAMP8 type Serpina3n (Q91WP6 21-418): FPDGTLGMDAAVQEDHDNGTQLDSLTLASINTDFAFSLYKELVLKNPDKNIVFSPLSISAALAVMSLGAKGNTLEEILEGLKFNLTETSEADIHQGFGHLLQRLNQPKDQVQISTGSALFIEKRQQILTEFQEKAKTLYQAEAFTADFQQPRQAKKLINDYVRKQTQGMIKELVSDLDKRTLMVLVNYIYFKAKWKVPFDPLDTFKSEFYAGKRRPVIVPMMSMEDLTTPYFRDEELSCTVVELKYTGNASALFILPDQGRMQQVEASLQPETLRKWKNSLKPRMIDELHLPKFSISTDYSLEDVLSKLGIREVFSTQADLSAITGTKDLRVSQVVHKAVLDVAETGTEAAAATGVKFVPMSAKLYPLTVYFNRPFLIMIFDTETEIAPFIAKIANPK

thioflavin T fluorescence assay of Aβ 42 fibrillization (time for which oligomeric or small protofibrillar forms were kept before the plateau) [1]: 13 h | prevalence of oligomer rich observation fields of Aβ 42 under TEM, 0 to 72 hr of preincubation (delayed fibrillization) [2]: 72 h
Substance: SAMP8 type Serpina3n (from UniProt Q91WP6 21-418) (natural protein)
